Assay results reported in the nanobody polyreactivity screen of Harvey et al. (2022).

Assay: yeast display, Sf9 membrane polyspecificity reagent, FACS + sequencing; frameworks hold sequencing errors
Summary of the method: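 A synthetic nanobody library was expressed on Saccharomyces cerevisiae BJ5465 by galactose induction for 36–48 hours. The library was stained for 1 hour at 4 °C with 10% biotinylated, detergent-solubilized Sf9 membrane reagent and enriched with streptavidin microbeads before FACS. Low and high (top ~1%) gates were set on anti-HA fluorescence for expression and streptavidin fluorescence for reagent binding, and each polyreactivity label reflects the gate of origin.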

Row | Sequence | polyreactivity (PSR sort gate)
1 | QVQLGESGGGLVQAGGSVRLSCAASGSTFWVNAMGWYRQAPGKERELVAAISNSGGSTYYADSVKGRFTISRDNAKNTVYLQMNSLKPEDTAVYYCAAAGGVDYDYWGQGTQVTVSS | low polyreactivity
2 | QVQLGESGGGLVQEGGSLRLSCAASGSTLQDYDMGWYRQAPGKERELVAAITWSTGTTYYADSVKGRFTISRDNAKNTVYLQMNSLKPEDPAVYYCAVDSYYRATYTYRYDYWGLGTQVTVSS | low polyreactivity
3 | QVQLGESGGRKVQPGGSLRLSCAASGYTIAWYVMGWSRQAPGKESELVAAISWSGGRTYYADSVKGRFTISRDNAKNTVYLQMNSLNPQDTAVYYCNAYWNPASKYDYWGQGTQVTVSS | high polyreactivity
4 | QVQLGESGRGLVPAGGSLRLSCASSGSIFDRNARGWYRQAPGKERELVAAISSRGGSTYYADSVKGRFTISRDNAKNTVYLQMNSLKPEDTAVYYCNKVRTYGYDYWGQGTQVTVSS | high polyreactivity
5 | QVQLGESGRGLVQAGGSLRLSCAASGRTSWYYAMGWYSQAPGKERELVATSTRSTGSTYYADSVKGRFTISRDNAKNTVYLQMNSLKPEDTAVYYCAKRRKTQPFYIKWYRVDYWGQGTQVTVST | high polyreactivity
6 | QVQLGETGGGLVQAGGSLRLSCAATGSIFRYNAMGWYRQAPGKERELVAAISGRGTSTYYADSVKGRFTISRDNAKNTVYLQMNSLKPEDTAVYYCAAVYFSSFLVEYYYWGQGTQVTVSS | high polyreactivity
7 | QVQLHESGGGLVQAGGGLRLSCAASGSISSTGFMGWYRQAPGKESEPVAAIAPGTTTYYADSVKGRFTISRDNAKNTVYLHMKSLRPEDTAVYYCAVFTDNRVAFLYWGEGTQVTVSS | low polyreactivity
8 | QVQLHESGGGLVQAGGGLRLTCAASGSISSTGFMGWYRQAPCKELEPVAAIAPGPTTYYADSGKGRFTISRDNAKNTVYLQMTSPRPEDTAVNYGAVFTDNRVAFLYWGQGTQVTVSS | low polyreactivity
9 | QVQLHESGGGLVQAGGSLRLSCAASGTISVTYNMGWYRQAPGKEREFVAGNSTGATTNYADSVKGRFTISRDNAKNTVYLQMNSLKPEDTAVYYCAAHIYRQDHFYYWGQGTQVTVSS | low polyreactivity
10 | QVQLHESGGGLVQAGGSLRRSCAASGTISYAGPMGWYRQAPGKEREFVAGIGVGSNTNYADSVKGRYTIIRDNAKNTVYLQMNSLKPEDTAVYYCAVGGYAPLGRPYWGQGTQVTVSS | low polyreactivity
11 | QVQLHESGGGLVQAGRGLRLSCPASGSITSTGFMGSYRQPPGKEREPVAAIAPGTTTYYADSVKGRFTISRDNAKYTEYLQMNSLRPEDTAVYYCAVFTDNRVAFLYWGQGTQVTVSS | low polyreactivity
12 | QVQLHESGGVLVQAGGSLRLSCAASGTISVHYNMCWYRQEPRQEREFVAGNSTGATTNYADSVKGRFTISRDNENNTVYLQMNSLKPEDTAVYYCAAHIYGQDHFYYWGQGTQVTVSS | low polyreactivity
13 | QVQLHESVGGLVQAGVSLRLSCEASGTNFTARFIGWYRQAPGKERELVATITDGCYTNHADSVNGRFTISRDNAKNTVYLTMNSLKPEVAAVYYCAAGDVDNDTLMYWGQGSQVTVSS | low polyreactivity
14 | QVQLIESGGGLVQAGGSLRLSCAASGSTCDRNSMGWYRPAPGKERELVAAIDSDVNTYYADSVKGRFTISRDKAKNTVYLQMNSLTPEDTAVYYCAADYYSWPYDYWGQGTQVTVSS | low polyreactivity
15 | QVQLLEIGGGLVQAGGSLRQSCMASGSILGDRMSWYRQAPGKEHELVATIFDGGITYYADSMKGRFTISRDNAKNTVYLQMNSLRPEDTAVYYCGASFDGYRYHVYCGQGTQVTVSS | low polyreactivity
16 | QVQLLESAGGLVQAGGSLRLSCAASGFIYIPYAMGWYRQAPGKERELVAAISTRGGGTYYADSVKGRFTISRDNAKKPVYLQMNSVKPEDTAVYYCNKQAFYNGRVGYDYWGQGTQVTVSS | low polyreactivity
17 | QVQLLESCGGLVQAGGSLRLSCAASGSILTQYAMGWYRQAPGKERELVAAITGRGGSTYYADSVKGRFTISRDIAMYTVYLEMNSLKPEDTAVFYCAAEERYAYRYDYWGQGTQVTVSS | high polyreactivity
18 | QVQLLESGGGIVKAGGFLRLSCAASGSTFRRYAMGRYREAPGIERELVAAITGRGGSTSYADSVKGRFTISRDNAMNTVYLQMNSLKPEDTSVYYCAADDKYFYPGNGYWGQGTQVTVSS | high polyreactivity
19 | QVQLLESGGGLDQAGGILRLSCASSGRTFNWYAMGWYRQAPGKEREFVAAINWSGGSTYYADSVKGRFTISRDNAKNTVYLQMNSLKPEDTAVYYCNKYPVGYRMYYWGQGTQVTVSS | low polyreactivity
20 | QVQLLESGGGLGQAGGSLRLSCAASGIIFRDSGMGWYRQAPGKEREFVATITYSGGGTYYADSVKGRFTISRDHAKNTVYLQMNSLKPEDTAVYYCAAYPFYYDLAYDYWGQGTQVTVSS | low polyreactivity
21 | QVQLLESGGGLLQAGGSLRLSCAASGITLIGNAMGWYRQAPGKESELVAAISKSGGNTFYAVSVKGRFTISRDNAKNTVYLQMNSLKPEDTAVYYCAADGYYGYYSQYEYLYYYWGQGTQVTVSS | high polyreactivity
22 | QVQLLESGGGLVEAGGSLRLSCSASGSTYNAMGWYRQATGKEREFVAYITTGGGGTYYADSVKGRFTISRDNAKNTVYLQMNSLKPEETADYYCAAEDYRTRTYVYRYRYYFWGQGTQVTVAS | high polyreactivity

Row | Sequence | polyreactivity (PSR sort gate)
23 | QVQLLESGGGLVPAGGSLRLSCAASGRIFSRYAMGWYRQAPGKERELVAAISRNGGSTYYADSVKGRFTISRDNAKNTVYLQMISLKPEDTAVYYCAASYFIYHYDFDYWGQGTQVTVSS | high polyreactivity
24 | QVQLLESGGGLVPSRGSLRLSCAASGFIFGHNTMGWYRQAPGKERELVARITSSGGGTNYADSVKGRFTISRDNAKNTVYLQMNSLKPEDTAVYYCAAELLYWGYYDYDYWGQGTQVTVSS | high polyreactivity
25 | QVQLLESGGGLVQAGGILRLSCAASGIIFRYYTMGWYRPAPGKERELVAAITSGGSTNYADSVKGRFTISRDNAKHTVYLQMNRLKPEDTAVYYCRQLSVWGYDYWGQGTQVTVSS | high polyreactivity
26 | QVQLLESGGGLVQAGGRLRLSCAASGSIFLWNAMGWYRQAPGKERELVAAITNIGGRTYYADSVKGRFTISRDNAKNTVYLQMNSLKPEDTAVYYCNVVVKGAWDYYPYDYWGQGTQVTVSS | high polyreactivity
27 | QVQLLESGGGLVQAGGSHRLSCAASGIIFQWNVMGWYRQAPGKERELVASITSGSSTHYADSVKVRFTISRDNAKNSVYLQMNSLKPEDTAVYYFAADGALRAEYDVEIEYDYWGQGTQVNVSS | low polyreactivity
28 | QVQLLESGGGLVQAGGSLRLICSASGRTFSGYALGWYRHSPGRERELVAAITSSGSSKYYADSVKGRFTISRDKAKYTVYLQMKSLKPEDTAVYYCAATPQAHSEPYFYQRKYDFWGEGTQVTVSS | low polyreactivity
29 | QVQLLESGGGLVQAGGSLRLRCAASGFIISRYAMAWYRQAPGKEMELVAGITGSGGSTYYADSVKGRFTISRDNAKNTVYLQMNSLKPEDTAVYYCAAGRRGGALLFYYWGQGTLVTVSS | high polyreactivity
30 | QVQLLESGGGLVQAGGSLRLSCAASGFIFDESAKGRYRQAPGKERQLVAAISWSGSRTYYADSVKGRFTISRDNAKNTVYLQMNSLKPEDTAVYYCAKVTGVGAGRRNYWGQGTQVTVSS | low polyreactivity
31 | QVQLLESGGGLVQAGGSLRLSCAASGFIFNHYAMGWYRQAPGKEREFVAAISWSGGSTYYADSVKGRFTISRDNAKNTVYLQMNSLKPEDTAVYYCAASYNGLWHGDYDYWGQGTQVTVSS | low polyreactivity
32 | QVQLLESGGGLVQAGGSLRLSCAASGFTFEDNAMGWYRKAPGKERELVAADGTNYADSVKGRFTISRDNAKNTVYLQMNSLKPEDTAVYYCARYARQVTPLSIGLYDYWGQGTQVTVSS | low polyreactivity
33 | QVQLLESGGGLVQAGGSLRLSCAASGIIFRVYAMGWYRQAPGKERELVATITWSGGSTFYADSVKGRFTISRDNAKNTVYLQMNSLKPEDTAVYYCAKRGYVRSGLGRPYADDYWGQGTQVTVSS | low polyreactivity
34 | QVQLLESGGGLVQAGGSLRLSCAASGITFQLYAMGWYRQAPGKEREFVAAINGRSGRTYYADSVKGRFTISRDNAKNTVYLHMNSLKPEDTAVYYCAKTSNGYGSGLPMYYWGQGTQVTVSS | high polyreactivity
35 | QVQLLESGGGLVQAGGSLRLSCAASGLTFNTYAMGWYIQAPGKERELVAAISRGGGSTYYADSVKGRFTISRDNAKNTVYLQMNSLKPEDTAVYYCNAEKRASYLLYDYWGQGTQVTVSS | high polyreactivity
36 | QVQLLESGGGLVQAGGSLRLSCAASGNIFMDYAMGWYRHAPGKERELVAAITSRVDDTYYADSVKGRFTISRDNAKNTVYLQMNSLKPEDTAVYYCAADYSVTLRIGGYYWFYAFDYWGQGTQVTVSS | low polyreactivity
37 | QVQLLESGGGLVQAGGSLRLSCAASGRIFGRYAMGWYRHAPGKERELVAAISQSGARTYYADSVKGRFTFSRDNAKNTVYLQMNSLKPEDTAVYYCAARYKALYDYWGQGTQVTVSS | high polyreactivity
38 | QVQLLESGGGLVQAGGSLRLSCAASGRIFGSNAMGWYRQAPGKERELVAAITRGGSTNYADSVKGRFTISRDNAKNTVYLQMNSLKPEDTAVYYCAVRWYRKYNYWGQGTQVTVSS | high polyreactivity
39 | QVQLLESGGGLVQAGGSLRLSCAASGRIFKFNAMGWYRQAPGKERDLVAAISKRGGSTYYADSVKGRFTISRDNAKNTVYLQMISLKPEDTAVYYCAADRSPYGGDYDYWGQGTQVTVSS | high polyreactivity
40 | QVQLLESGGGLVQAGGSLRLSCAASGRTFQRNAMGWYRQAPGKETELVATITTNGGSTYYADSVKGRFTISRDNAKNTVYLQMNSLKPEDTAVYYCAAPFNPRVRTLRSVRMDYWGQGTQVTVSS | low polyreactivity
41 | QVQLLESGGGLVQAGGSLRLSCAASGRTFTTYTMGWYRQAPGKERELVAAIRSGGRTYYADSVKGRFTISRDNAKNTVYLQMNSLKPEDTAVYYCNARDCVRNVYAYAGRQYDYWGQGTQVTVSS | low polyreactivity
42 | QVQLLESGGGLVQAGGSLRLSCAASGRTLDRNAMGWYRQAPGKERELVAAISRRTGSTYYADSVKGRFTISRDNAKNTVYLQMNSLKPEDTAVYYCNKVTYGDFDYWGQGTQVTVSS | high polyreactivity
43 | QVQLLESGGGLVQAGGSLRLSCAASGSIFFYYAMGWDRQAPGKERELVATITSGGSTSYADSVKGRFTISRDNAKNTVYLQMNSLKPEDTAVYYCAARKVTKSTYNYWGQGTQVTVSS | low polyreactivity
